Assays:
[1] = system: Kit225 Interferon Regulatory Factor 1 (IRF1)-driven reporter cell line; assay: Kit225 IRF1-driven reporter cell line assay; assay type: cell-based
[2] = system: rats; assay: Single-dose exploratory SC study in rats; assay type: in vivo
[3] = system: rats; assay: 2-week toxicity study in rats, once weekly SC; assay type: in vivo
Text: The highest exposures were noted during the first week of each study and diminished considerably during the second week, due to ADA impact. […] Splenic capsular fibroplasia with inflammation was considered adverse at all twice weekly doses due to moderate to marked severity and was also associated with minimal to mild inflammation in the mesentery (adjacent to the stomach and pancreas), which further contributed to the adversity of the finding. […] The primary BMS-986326-related effects were mostly minimal in severity at all once weekly doses (0.25, 0.5, or 1 mg/kg) and included increased eosinophils (1.9× to 6.7×); minimal capsular fibroplasia/fibrosis of spleen without inflammation or involvement of adjacent mesentery; and pharmacologically mediated infiltration of eosinophils into a few tissues, none of which were considered adverse due to low magnitude of change and lack of evidence of any compromise in functional integrity of organs involved.

[4] = system: Treg; assay: Phase 1 single ascending dose study, Cohort A4; assay type: in vivo, human; conditions: Cohort A4, 3 mg single intravenous infusion, compared to placebo; preliminary
Protocol: BMS-986326 is assessed in a Phase 1, randomized, double-blind, placebo-controlled, single ascending doses (SAD) study to evaluate the safety, tolerability, pharmacokinetics (PK), and pharmacodynamics (PD) of single doses of BMS-986326 in healthy adult participants.
Blood samples are collected and measured by flow cytometry for quantitating immune cells such as Treg, Tconv, follicular helper T cells (Tfh), B cells, and NK cells by surface markers that may include, but not limited to, cell lineage and activation markers CD3, CD4, CD8, CD14, CD25, CD39, CD45, CD45RA, CD56, CD127, Foxp3, Helios, CXCR5, CCR7, and Ki67. Blood samples are also collected and measured by flow cytometry for determining BMS-986326 engagement to Treg, Tconv, CD8 T cells, and NK cells identified by pSTAT5.
Preliminary Results from BMS-986326 Cohort A4 (3 mg Single Intravenous Infusion)

[5] = system: monkeys; assay: 2-week toxicity study in monkeys, weekly SC

BMS-986326: recombinant fusion protein of human IL2 and extracellular domain of human CD25, (GGGS)3 linker, non-covalent self-blocking homodimer
decrease of in vitro potency compared to recombinant IL-2 [1]: > 100 fold | EC50 ([1]; Kit225 IRF1-driven reporter cell line, read-out: average half-maximal effective concentration (EC50)): 3.4 nM | dose not tolerated (morbidity or death on Day 5) ([2]; male rats, single SC dose): ≥ 25 mg/kg/day | mean AUC [0-96 h] ([2]; rats, 5 mg/kg): 501 µg·h/mL | dose with no adverse effects observed ([2]; rats, single SC dose): 5 mg/kg | mean AUC [0-96 h] at not tolerated doses ([2]; rats, ≥25 mg/kg/day): ≥ 2,080 μg·h/mL | mean AUC at NOAEL ([3]; 1 mg/kg once weekly): 162 µg·h/mL | NOAEL ([3]; once weekly dosing for 2 weeks): 1 mg/kg | Treg versus baseline levels [4]: increased from baseline levels | mean AUC[0-168 h] at NOAEL ([5]; 0.125 mg/kg/week): 132 µg·h/mL | NOAEL ([5]; 2-week weekly SC): 0.125 mg/kg/week | clinically tolerated doses ([5]; weekly SC, 2 weeks): ≤ 0.25 mg/kg

— patent publication US20240325495A1, “FUSION PROTEINS FOR THE TREATMENT OF DISEASE” (Bristol-Myers Squibb Company, priority 2020, published 2024)
